# Measured values published in paper PMC4996995.
# Target: T1, (His)6-YycF, non-phosphorylated response regulator (Streptococcus pneumoniae TIGR4) (UniProt A0A0H2UQ68)
# T1 sequence: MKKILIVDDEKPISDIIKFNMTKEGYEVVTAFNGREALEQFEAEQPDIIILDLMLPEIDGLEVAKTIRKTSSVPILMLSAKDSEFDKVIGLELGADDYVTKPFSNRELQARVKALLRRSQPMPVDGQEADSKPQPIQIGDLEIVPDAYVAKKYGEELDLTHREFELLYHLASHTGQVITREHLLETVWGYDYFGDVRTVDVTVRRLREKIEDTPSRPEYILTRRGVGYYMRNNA
# Assay: EMSA
# Conditions: EMSA: 50 mM Tris-HCl pH 7.8, 500 mM NaCl, 4 mM MgCl2, 20 uL, 0.5-1.0 nM DNA, 0°C 30 min; 5% native PAGE, TBE, 4°C
sequence,measurement,value
CATTCGGAGAGAAGAAGACCTAAATTTACAGGAAAATAAAAAATACTTGCATCATTCTTTGAATTTTGATATAATTCTTTCTGTCAAATGTTTTGATTGTAAAAGTTTTTTGAAGAAGGAGGGATATGAAAAATGGACTACCAACGAATCAATGAATATTTAACATCTATATTTAACAATGTCCTTGTAATTGAGG (double strand) [amplicon A (PFabT promoter region)],binding,binds
